Measured values as given in patent publication US20230192896A1 (BIOVERATIV THERAPEUTICS, published 2023).

target: T1, FIXa-SM (FIXa+EGR-CMK) (human, UniProt P00740 47-191; P00740 227-461, EGR-CMK (L-Glu-Gly-Arg chloromethyl ketone) covalently bound to the active site); assay: BLI; class meaning: paragraph 914
T1 construct: BLI antigen bought from Haematologic Technologies (HCIXA-EGR); also called FIXa with substrate mimic

Binder	binding result
BIIB-9-605 (antibody, V domains shown, IgG) VH: not shown VL: DIQMTQSPSSVSASVGDRVTITCRASQGISSWLAWYQQKPGKAPKLLIYAASSLQSGVPSRFSGSGSGTDFTLTISSLQPEDFATYYCQQADVFPFTFGGGTKVEIK	binds
BIIB-9-590 (antibody, V domains shown, IgG) VH: QVQLVQSGAEVKKPGASVKVSCKASGYTFTSYYMHWVRQAPGQGLEWMGIINPSGGSTSYAQKFQGRVTMTRDTSTSTVYMELSSLRSEDTAVYYCARDQEWAYYGMDVWGQGTTVTVSS VL: EIVLTQSPATLSLSPGERATLSCRASQSVSSYLAWYQQKPGQAPRLLIYDASNRATGIPARFSGSGSGTDFTLTISSLEPEDFAVYYCQQVDNFPLTFGGGTKVEIK	binds
BIIB-9-414 (antibody, V domains shown, IgG) VH: QVQLVQSGAEVKKPGASVKVSCKASGYTFTSYYMHWVRQAPGQGLEWMGIINPSGGSTSYAQKFQGRVTMTRDTSTSTVYMELSSLRSEDTAVYYCARDPYSYGMYYFDYWGQGTLVTVSS VL: DIQMTQSPSSVSASVGDRVTITCRASQGISSWLAWYQQKPGKAPKLLIYAASSLQSGVPSRFSGSGSGTDFTLTISSLQPEDFATYYCQQGDVFPFTFGGGTKVEIK	binds
BIIB-9-592 (antibody, V domains shown, IgG) VH: QLQLQESGPGLVKPSETLSLTCTVSGGSISSNSYYWGWIRQPPGKGLEWIGSIYYSGSTYYNPSLKSRVTISVDTSKNQFSLKLSSVTAADTAVYYCARDSNYDSSGYALYYYGMDVWGQGTTVTVSS VL: not shown	binds
BIIB-9-627 (antibody, V domains shown, IgG) VH: QVQLVQSGAEVKKPGASVKVSCKASGYTFTSYYMHWVRQAPGQGLEWMGIINPSGGSTSYAQKFQGRVTMTRDTSTSTVYMELSSLRSEDTAVYYCARADYDYWSGYGGLGMDVWGQGTTVTVSS VL: not shown	binds
BIIB-9-566 (antibody, V domains shown, IgG) VH: QVQLVQSGAEVKKPGASVKVSCKASGYTFTSYYMVWVRQAPGQGLEWMGIINPSGGSTSYAQKFQGRVTMTRDTSTSTVYMELSSLRSEDTAVYYCARVPTYRYSYLAFDIWGQGTMVTVSS VL: EIVMTQSPATLSVSPGERATLSCRASQSVSSSLAWYQQKPGQAPRLLIYGASTRATGIPARFSGSGSGTEFTLTISSLQSEDFAVYYCQQHDNWPPTFGGGTKVEIK	binds
BIIB-9-452 (antibody, V domains shown, IgG) VH: QVQLVQSGAEVKKPGASVKVSCKASGYTFTSYYMHWVRQAPGQGLEWMGIINPSGGSTSYAQKFQGRVTMTRDTSTSTVYMELSSLRSEDTAVYYCARDGRLSYTWDRWGQGTLVTVSS VL: EIVMTQSPATLSVSPGERATLSCRASQSVSSNLAWYQQKPGQAPRLLIYGASTRATGIPARFSGSGSGTEFTLTISSLQSEDFAVYYCQQANNFPFTFGGGTKVEIK	binds
BIIB-9-460 (antibody, V domains shown, IgG) VH: QVQLVQSGAEVKKPGASVKVSCKASGYTFTSYYMHWVRQAPGQGLEWMGIINPSGGSTSYAQKFQGRVTMTRDTSTSTVYMELSSLRSEDTAVYYCARDISTDGESSLYYYMDVWGKGTTVTVSS VL: EIVMTQSPATLSVSPGERATLSCRASQSVSSNLAWYQQKPGQAPRLLIYGASTRATGIPARFSGSGSGTEFTLTISSLQSEDFAVYYCQQHDNFPFTFGGGTKVEIK	binds
BIIB-9-477 (antibody, V domains shown, IgG) VH: EVQLLESGGGLVQPGGSLRLSCAASGFTFSNYAMSWVRQAPGKGLEWVSAISGSGGSTYYADSVKGRFTISRDNSKNTLYLQMNSLRAEDTAVYYCARGGVYSSSWMRFWGQGTLVTVSS VL: EIVMTQSPATLSVSPGERATLSCRASQSVSSSLAWYQQKPGQAPRLLIFGASTRATGIPARFSGSGSGTEFTLTISSLQSEDFAVYYCQQDVNWPITFGGGTKVEIK	binds
BIIB-9-622 (antibody, V domains shown, IgG) VH: QVQLVQSGAEVKKPGASVKVSCKASGYTFTSYYMHWVRQAPGQGLEWMGIINPSGGSTSYAQKFQGRVTMTRDTSTSTVYMELSSLRSEDTAVYYCARDGATTVSYLSFDIWGQGTMVTVSS VL: EIVMTQSPATLSVSPGERATLSCRASQSVSSSLAWYQQKPGQAPRLLIYGASTRATGIPARFSGSGSGTEFTLTISSLQSEDFAVYYCQQHSTWPPTFGGGTKVEIK	binds
BIIB-9-479 (antibody, V domains shown, IgG) VH: QVQLQESGPGLVKPSETLSLTCTVSGGSISSYYWSWIRQPPGKGLEWIGSIYYSGSTNYNPSLKSRVTISVDTSKNQFSLKLSSVTAADTAVYYCAREHYGDYPLFDIWGQGTMVTVSS VL: DIQMTQSPSTLSASVGDRVTITCRASQSISSWLAWYQQKPGKAPKLLIYKASSLESGVPSRFSGSGSGTEFTLTISSLQPDDFATYYCQQYRILSPTFGGGTKVEIK	binds
BIIB-9-465 (antibody, V domains shown, IgG) VH: QVQLVQSGAEVKKPGASVKVSCKASGYTFTSYYMVWVRQAPGQGLEWMGIINPSGGSTSYAQKFQGRVTMTRDTSTSTVYMELSSLRSEDTAVYYCARSPTDGYYFDLWGRGTLVTVSS VL: DIQMTQSPSTLSASVGDRVTITCRASQSINSWLAWYQQKPGKAPKLLISDASSLESGVPSRFSGSGSGTEFTLTISSLQPDDFATYYCQQYEIFPFTFGGGTKVEIK	binds
BIIB-9-440 (antibody, V domains shown, IgG) VH: QLQLQESGPGLVKPSETLSLTCTVSGGSISSSDYYWGWIRQPPGKGLEWIGSIYYSGSTYYNPSLKSRVTISVDTSKNQFSLKLSSVTAADTAVYYCARSPRHKVRGPNWFDPWGQGTLVTVSS VL: not shown	binds

Results, then the binder that gave them:

binding result	Binder
binds	BIIB-9-475 (antibody, V domains shown, IgG) VH: QVQLQESGPGLVKPSETLSLTCTVSGGSISSYYWSWIRQPPGKGLEWIGSIYYSGSTNYNPSLKSRVTISVDTSKNQFSLKLSSVTAADTAVYYCARDVGGYDYGVGAFDIWGQGTMVTVSS VL: DIQMTQSPSSLSASVGDRVTITCQASQDITNYLNWYQQKPGKAPKLLIYDASNLETGVPSRFSGSGSGTDFTFTISSLQPEDIATYYCQQSSNFPLTFGGGTKVEIK
binds	BIIB-9-587 (antibody, V domains shown, IgG) VH: QVQLVQSGAEVKKPGASVKVSCKASGYTFTSYYMHWVRQAPGQGLEWMGIINPSGGSTSYAQKFQGRVTMTRDTSTSTVYMELSSLRSEDTAVYYCARGPPGYEYYMDVWGKGTTVTVSS VL: DIQMTQSPSSVSASVGDRVTITCRASQGISSWLAWYQQKPGKAPKLLIYAASSLQSGVPSRFSGSGSGTDFTLTISSLQPEDFATYYCQQADSFPFTFGGGTKVEIK
binds	BIIB-9-564 (antibody, V domains shown, IgG; also called BIB-4-564) VH: QVQLQESGPGLVKPSETLSLTCAVSGYSISSGYYWAWIRQPPGKGLEWIGSIYHSGSTYYNPSLKSRVTISVDTSKNQFSLKLSSVTAADTAVYYCARDPGYSWEYFDYWGQGTLVTVSS VL: DIQMTQSPSSLSASVGDRVTITCRASQSISSYLNWYQQKPGKAPKLLIYAASSLQSGVPSRFSGSGSGTDFTLTISSLQPEDFATYYCQQSVAVPPTFGGGTKVEIK
binds	BIIB-9-415 (antibody, V domains shown, IgG) VH: QVQLVQSGAEVKKPGASVKVSCKASGYTFTSYYMHWVRQAPGQGLEWMGIINPSGGSTSYAQKFQGRVTMTRDTSTSTVYMELSSLRSEDTAVYYCARDGLSSGYYWDNWGQGTLVTVSS VL: DIQMTQSPSSVSASVGDRVTITCRASQGIDSWLAWYQQKPGKAPKLLIYAASSLQSGVPSRFSGSGSGTDFTLTISSLQPEDFATYYCQQGDAFPFTFGGGTKVEIK
binds	BIIB-9-425 (antibody, V domains shown, IgG) VH: QVQLVQSGAEVKKPGASVKVSCKASGYTFTSYYMHWVRQAPGQGLEWMGIINPSGGSTSYAQKFQGRVTMTRDTSTSTVYMELSSLRSEDTAVYYCAREPTWDVAYDYWGQGTLVTVS VL: EIVLTQSPGTLSLSPGERATLSCRASQSVSSDYLAWYQQKPGQAPRLLIYGASSRATGIPDRFSGSGSGTDFTLTISRLEPEDFAVYYCQQYDSHPYTFGGGTKVEIK
binds	BIIB-9-608 (antibody, V domains shown, IgG) VH: QLQLQESGPGLVKPSETLSLTCTVSGGSISSSSYYWGWIRQPPGKGLEWIGSIYYSGSTYYNPSLKSRVTISVDTSKNQFSLKLSSVTAADTAVYYCARDRLETSEAGMDVWGQGTTVTVSS VL: not shown
binds	BIIB-9-616 (antibody, V domains shown, IgG) VH: QVQLVQSGAEVKKPGASVKVSCKASGYTFTSYYMHWVRQAPGQGLEWMGIINPSGGSTSYAQKFQGRVTMTRDTSTSTVYMELSSLRSEDTAVYYCARGGSKYFFDLWGRGTLVTVSS VL: EIVMTQSPATLSVSPGERATLSCRASQSVSSSLAWYQQKPGQAPRLLIYGASTRATGIPARFSGSGSGTEFTLTISSLQSEDFAVYYCQQADNFPFTFGGGTKVEIK
binds	BIIB-9-461 (antibody, V domains shown, IgG) VH: QVQLVQSGAEVKKPGASVKVSCKASGYTFTSYYMHWVRQAPGQGLEWMGIINPSGGSTSYAQKFQGRVTMTRDTSTSTVYMELSSLRSEDTAVYYCARGPTDSSGYLDMDVWGKGTTVTVSS VL: EIVMTQSPATLSVSPGERATLSCRASQSVSSSLAWYQQKPGQAPRLLIYGASTRATGIPARFSGSGSGTEFTLTISSLQSEDFAVYYCQQHHHWPPTFGGGTKVEIK
binds	BIIB-9-480 (antibody, V domains shown, IgG) VH: QVQLQESGPGLVKPSETLSLTCAVSGYSISSGYYWGWIRQPPGKGLEWIGSSYHSGSTYYNPSLKSRVTISVDTSKNQFSLKLSSVTAADTAVYYCARDQQDYGAFDIWGQGTMVTVSS VL: not shown
binds	BIIB-9-558 (antibody, V domains shown, IgG) VH: EVQLVESGGGLVKPGGSLRLSCAASGFTFSSYSMNWVRQAPGKGLEWVSSISSSSSYIYYADSVKGRFTISRDNAKNSLYLQMNSLRAEDTAVYYCARSYGYGYHDFDLWGRGTLVTVSS VL: DIQMTQSPSTLSASVGDRVTITCRASQSIGSWLAWYQQKPGKAPKLLIYKASSLESGVPSRFSGSGSGTEFTLTISSLQPDDFATYYCQQAGSYSFTFGGGTKVEIK
binds	BIIB-9-621 (antibody, V domains shown, IgG) VH: QLQLQESGPGLVKPSETLSLTCTVSGGSISSSSYYWGWIRQPPGKGLEWIGSIYYSGSTYYNPSLKSRVTISVDTSKNQFSLKLSSVTAADTAVYYCARDGSISGSRFDYWGQGTLVTVSS VL: not shown
